# Measurements published in article PMC12450465, “Oligomerization and exocyst coupling underlie Spa2-mediated focusing of polarized growth in fission yeast” (Journal of Cell Science, 2025).
# T1: MBP–Pos1 (S. pombe, UniProt O13743 1-269)
# T1 construct: Pos1, S. pombe; source: Rosetta2(DE3)pLysS bacteria, purified on amylose beads, eluted with 10 mM maltose; not shown: MBP, N-terminal, kept
# T1 sequence (looked up): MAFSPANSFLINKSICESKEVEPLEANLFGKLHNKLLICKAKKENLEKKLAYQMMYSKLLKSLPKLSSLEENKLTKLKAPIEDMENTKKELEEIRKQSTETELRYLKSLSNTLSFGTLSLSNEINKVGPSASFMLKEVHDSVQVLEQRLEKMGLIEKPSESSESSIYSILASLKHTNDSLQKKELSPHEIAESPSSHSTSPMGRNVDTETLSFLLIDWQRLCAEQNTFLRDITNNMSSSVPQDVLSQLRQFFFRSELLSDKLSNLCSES
# B1: His6–Pos1 (natural protein, S. pombe, UniProt O13743 1-269, looked up)
# chain: T1 sequence (looked up)
# notes: Pos1, S. pombe; also called His6-tagged Pos1; source: Rosetta2(DE3)pLysS bacteria (pETDuet); alone: purified on nickel magnetic beads; not shown: His6, N-terminal, kept
# B2: FLAG–Spa2(200–360) (domain or fragment, S. pombe, UniProt O42869 200-360, looked up)
# chain: NTVQANNSSTSSLSQGAQTGIDSSSNYLSRIEMLESSLAKSNSLLDSSKSEMEALKAKSISDATKHKNEIFQLEEKLHEASHEAEISIKKLNDAENRIKELENNPTLSFNPELEKNLKLMQELIVAESSKTQHIVELESCIDSLKAETERWKKVAINAKSA
# notes: also called Spa2(200–360)–FLAG
# B3: GST–Spa2(305–360) (domain or fragment, S. pombe, UniProt O42869 305-360, looked up)
# chain: TLSFNPELEKNLKLMQELIVAESSKTQHIVELESCIDSLKAETERWKKVAINAKSA
# notes: not shown: GST, N-terminal, kept
# Columns and labels:
# FLAG–Spa2(200–360) = molecular target: B2; experiment: pull-down; co-purification: His6–Pos1 and FLAG–Spa2(200–360) co-produced in bacteria with a dual expression system, purified on DYKDDDDK Fab-Trap agarose, eluted with 3×FLAG peptide; SDS-PAGE, Coomassie Blue; settings: partners not purified
# His6–Pos1 = molecular target: B1; experiment: SEC; Superose 6 10/300 GL, 0.5 ml/min, 4°C, 10 mM Tris-HCl pH 7.5, 150 mM NaCl, 0.5 mM EDTA; each protein alone or the co-purified complex; sizes estimated from calibration standards; settings: both partners purified
# MBP–Pos1 = molecular target: T1, MBP–Pos1; experiment: pull-down; GST proteins left on beads, incubated with eluted MBP proteins in GST buffer for 40 min at 4°C; washed three times; SDS-PAGE, Coomassie Blue; settings: both partners purified
binder,measurement,setting,value
B1,stoichiometry N,FLAG–Spa2(200–360),~1
B2,binding result,His6–Pos1,binds
B3,binding result,MBP–Pos1,binds
